From patent publication US20230287125A1 (LEPU BIOPHARMA, published 2023)
Positions count from the first letter of the chain named. Values belong to the molecule of their own block, whether it stands above or below them.

Experiments:
[1] = molecular target: human TGF-β protein (human) (UniProt P01137); assay: cell-based or functional assay
[2] = molecular target: PD-L1 on PD-L1 target cells (Homo sapiens (Human)) (UniProt Q9NZQ7); assay: cell-based or functional assay
[3] = molecular target: T1, human PD-L1-his tag protein (human, UniProt Q9NZQ7 19-238); assay: ELISA, coated human PD-L1-His
T1 construct: also called human PD-L1-His protein; recombinant PD-L1 protein; not shown: his tag

[4] = molecular target: cynomolgus TGF-β protein (cynomolgus); assay: ELISA, coated cynomolgus TGF-β
[5] = molecular target: mouse TGF-β protein (mouse); assay: ELISA, coated mouse TGF-β
[6] = molecular target: human TGF-β protein (human) (UniProt P01137); assay: ELISA, coated human TGF-β
rat PD-L1 protein = rat PD-L1 protein (rat, UniProt D4AE25 19-239); assay: ELISA, coated rat PD-L1
Protocol: (§1) ELISA testing was carried out to evaluate the binding of chimeric antibodies to human, mouse, rat, and cynomolgus PD-L1, respectively.
(§2) Briefly, microtiter plates were coated with human, mouse, rat and cynomolgus PD-L1 proteins at 0.5 μg/ml in PBS, 100 μl/well at 4° C. overnight, then blocked with 150 μl/well of 1% BSA. Three-fold dilutions of chimeric antibodies starting from 10 μg/ml were added to each well and incubated for 1 hour at 37° C. The plates were washed with PBS/Tween and then incubate with mouse-anti-human IgG Fab antibody conjugated with Horse Radish Peroxidase (HRP) for 30 mins at 37° C. After washing, the plates were developed with TMB substrate and analyzed by spectrophotometer at OD 450 nm.

cynomolgus PD-L1 protein = cynomolgus PD-L1 protein (cynomolgus, UniProt G7PSE7 19-238); assay: ELISA, coated cynomolgus PD-L1
Protocol: as §1, §2

mouse PD-L1 protein = mouse PD-L1 protein (mouse, UniProt Q9EP73 19-239); assay: ELISA, coated mouse PD-L1
Protocol: as §1, §2

rat TGF-β protein (rat) = assay: ELISA, coated rat TGF-β
human PD-L1-Fc protein [7] = molecular target: T2, human PD-L1-Fc protein (human, UniProt Q9NZQ7 19-238); assay: ELISA, antibody titrated on coated human PD-L1-Fc, OD 450nm; upper right panel
T2 construct: coating antigen of the ELISAs; also called rhPD-L1-Fc; not shown: Fc

[8] = molecular target: T1, human PD-L1-his tag protein; assay: SPR (Biacore T200), mAb captured on Protein A chip, PD-L1-his injected
Protocol: The binding of the humanized antibodies to recombinant PD-L1 protein (human PD-L1-his tag) was tested by Biacore using a capture method. […] A serial dilution of human PD-L1-his tag protein was injected over captured antibody for 2 mins at a flow rate of 30 μl/min. The antigen was allowed to dissociate for 1500 s. All the experiment were carried out on a Biacore T200.

[9] = molecular target: T1, human PD-L1-his tag protein; assay: SPR (Biacore), affinity ranking, PDL1-His
human PD-L1-Fc protein [10] = molecular target: T2, human PD-L1-Fc protein; assay: receptor blocking ELISA: coated human PD-L1-Fc, blocked ligand biotin-labeled human PD-1-Fc (Bio-PD1), OD 450nm; middle right panel
Protocol: (§3) Briefly, microtiter plates were coated with human PD-L1-Fc protein at 0.5 μg/ml in PBS, 100 μl/well at 4° C. overnight, then blocked with 150 μl/well of 1% BSA at 37° C. for 2 hours. […] The plates were washed with PBS/Tween and then incubated with Streptavidin-HRP for 10 mins at 37° C. After washing, the plates were developed with TMB substrate and analyzed by spectrophotometer at OD 450 nm.

[11] = molecular target: T3, human PD-L1 over-expressed on CHOK1 cells (human, UniProt Q9NZQ7 19-290); assay: flow cytometry (MFI) on PDL1-CHOK1 cells; upper right panel
T3 construct: whole, on cells; also called PDL1-CHOK1 cells
Protocol: To evaluate the antigen binding property, the humanized antibodies were analyzed for their binding to PD-L1 overexpressed on mammalian cells by FACS. Briefly, PDL1-CHOK1 cells were firstly incubated with 3-fold serious diluted humanized antibodies starting at 15 μg/ml at 4° C. for 40 mins. After washed by PBS, the Alexa Fluor® 647 AffiniPure Goat Anti-Human IgG (H+L) antibody was added to each well and incubated at 4° C. for 30 mins. The MFI of Alexa Fluor® 647 was evaluated by FACSCanto.

human PD-L1-Fc protein [12] = molecular target: T2, human PD-L1-Fc protein; assay: receptor blocking ELISA: coated human PD-L1-Fc, blocked ligand biotin-labeled human CD80-Fc (Bio-CD80), OD 450nm; middle right panel
Protocol: as §3

human PD-L1-Fc protein [13] = molecular target: T2, human PD-L1-Fc protein; assay: receptor blocking ELISA: coated human PD-L1-Fc, blocked ligand biotin-labeled human PD-1-Fc (Bio-PD1), OD 450nm [cont'd]
Protocol: as §3

human PD-L1-Fc protein [14] = molecular target: T2, human PD-L1-Fc protein; assay: ELISA, antibody titrated on coated human PD-L1-Fc, OD 450nm; lower right panel
Protocol: as §2, with “To evaluate antigen binding activity, the humanized antibodies were subjected to ELISA test. Briefly,” for “Briefly,”, “with human PD-L1-Fc protein” for “with human, mouse, rat and cynomolgus PD-L1 proteins”, “with 200” for “with 150”, “of humanized” for “of chimeric”, “then incubated” for “then incubate”, “for 1 hour” for “for 30 mins”

human PD-L1-Fc protein [15] = molecular target: T2, human PD-L1-Fc protein; assay: receptor blocking ELISA: coated human PD-L1-Fc, blocked ligand biotin-labeled human CD80-Fc (Bio-CD80), OD 450nm [cont'd]
Protocol: as §3

T1 sequence (Q9NZQ7 19-238 limits assumed): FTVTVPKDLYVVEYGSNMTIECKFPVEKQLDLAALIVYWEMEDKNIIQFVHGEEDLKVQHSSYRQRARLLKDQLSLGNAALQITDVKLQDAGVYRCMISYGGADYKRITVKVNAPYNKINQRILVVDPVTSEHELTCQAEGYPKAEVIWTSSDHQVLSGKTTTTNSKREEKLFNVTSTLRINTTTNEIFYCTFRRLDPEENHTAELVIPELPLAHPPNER
T2 sequence (Q9NZQ7 19-238 limits assumed): as above
T3 sequence (Q9NZQ7 19-290): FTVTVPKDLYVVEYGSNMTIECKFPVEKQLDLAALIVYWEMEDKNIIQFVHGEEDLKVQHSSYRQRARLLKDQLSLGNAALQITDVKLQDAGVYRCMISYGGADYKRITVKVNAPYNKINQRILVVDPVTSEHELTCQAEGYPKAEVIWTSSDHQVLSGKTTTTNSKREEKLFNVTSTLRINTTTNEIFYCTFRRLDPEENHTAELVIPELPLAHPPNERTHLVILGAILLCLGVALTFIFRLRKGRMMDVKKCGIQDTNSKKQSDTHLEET
human TGF-β protein (human), sequence (P01137 279-390 limits assumed): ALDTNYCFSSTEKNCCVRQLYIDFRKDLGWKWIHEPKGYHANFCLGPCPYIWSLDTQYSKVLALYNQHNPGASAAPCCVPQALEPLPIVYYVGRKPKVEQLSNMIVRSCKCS
PD-L1 on PD-L1 target cells (Homo sapiens (Human)), sequence (Q9NZQ7 19-290 limits assumed): as the sequence (Q9NZQ7 19-290) above
rat TGF-β protein (rat), sequence (P17246 279-390): as the sequence (P01137 279-390 limits assumed) above, with A75S counted along it
mouse TGF-β protein (mouse), sequence (P04202 279-390): as the sequence (P01137 279-390 limits assumed) above, with A75S counted along it
cynomolgus PD-L1 protein, sequence (G7PSE7 entry or part of it): as the sequence (Q9NZQ7 19-238 limits assumed) above, with A33T, A34S, S62N, R68Q, Q82R, F173L, T185A, T192I, H215L counted along it
mouse PD-L1 protein, sequence (Q9EP73 19-239 limits assumed): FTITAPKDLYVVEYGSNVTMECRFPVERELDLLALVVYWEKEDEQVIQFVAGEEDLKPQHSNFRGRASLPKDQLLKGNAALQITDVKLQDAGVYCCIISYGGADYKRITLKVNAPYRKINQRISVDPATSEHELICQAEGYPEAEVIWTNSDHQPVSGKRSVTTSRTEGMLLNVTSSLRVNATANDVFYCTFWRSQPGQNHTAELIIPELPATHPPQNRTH
cynomolgus TGF-β protein (cynomolgus), sequence (P09533 279-390): as the sequence (P01137 279-390 limits assumed) above
rat PD-L1 protein, sequence (D4AE25 entry or part of it limits assumed): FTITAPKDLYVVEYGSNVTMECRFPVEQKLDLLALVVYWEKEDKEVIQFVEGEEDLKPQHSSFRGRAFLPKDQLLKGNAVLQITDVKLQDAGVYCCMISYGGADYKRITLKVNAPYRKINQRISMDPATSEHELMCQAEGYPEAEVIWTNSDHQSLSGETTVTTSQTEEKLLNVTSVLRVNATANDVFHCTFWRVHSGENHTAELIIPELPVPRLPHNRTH

IC50, TGF-β SBE luciferase reporter assay in 293 cells [1]: 0.0669 nM | EC50, NFAT-RE-mediated luminescence, PD1 effector cells co-cultured with PD-L1 target cells [2]: 0.85 nM | EC50 [3]: 0.0237 µg/mL | EC50 [4]: 0.0397 µg/mL | EC50 [5]: 0.0462 µg/mL | EC50 [6]: 0.0434 µg/mL | EC50 (rat PD-L1 protein): 0.0143 µg/mL | EC50 (cynomolgus PD-L1 protein): 0.0256 µg/mL | EC50 (mouse PD-L1 protein): 0.0106 µg/mL | EC50 (rat TGF-β protein (rat)): 0.124 µg/mL
Molecule: M7824 (bintrafusp alfa)

EC50 (human PD-L1-Fc protein [7]): 0.0124 µg/mL | Kd [8]: 0.0328 nM | koff [8]: 7.25e-05 s⁻¹ | kon [8]: 2.21e+06 M⁻¹ s⁻¹ | Kd [9]: 0.0353 nM | koff [9]: 9.49e-05 s⁻¹ | kon [9]: 2.69e+06 M⁻¹ s⁻¹ | IC50 (human PD-L1-Fc protein [10]): 0.14 µg/mL | EC50 [11]: 0.11 nM | IC50 (human PD-L1-Fc protein [12]): 0.382 µg/mL
B1: Hu67F3G7-7 (antibody, V domains shown)
VH: EVQLVQSGAEVKKPGASVKVSCKASGYTFTDFWVSWVRQAPGQGLEWMGEIYPNSGVSRYNEKFKGRVTMTVDKSISTAYMELSRLRSDDTAVYYCTKYFGYTYWFGYWGQGTLVTVSS
VL: DTVLTQSPSSLSASVGDRVTITCRASKSVSTYMHWYQQKPGKAPKLLIYSASHLESGVPSRFSGSGSGTDFTLTISSLQPEDFATYYCQQSNELPVTFGGGTKVEIK
notes: humanized

IC50 (human PD-L1-Fc protein [13]): 0.108 µg/mL | EC50 (human PD-L1-Fc protein [14]): 0.0078 µg/mL | Kd [8]: 0.0326 nM | koff [8]: 5.79e-05 s⁻¹ | kon [8]: 1.78e+06 M⁻¹ s⁻¹ | IC50 (human PD-L1-Fc protein [15]): 0.126 µg/mL | Kd [9]: 0.0435 nM | koff [9]: 7.26e-05 s⁻¹ | kon [9]: 1.67e+06 M⁻¹ s⁻¹ | EC50 [11]: 0.118 nM
B2: Hu67F3G7-22 (antibody, V domains shown)
VH: B1 VH
VL: B1 VL with T2I, V3Q, L4M, A43Q
notes: humanized
